In IntAct's records for PubMed 28934384:

B1: Protein kinase C epsilon type (Homo sapiens), Q02156 (parent)
chain: MVVFNGLLKIKICEAVSLKPTAWSLRHAVGPRPQTFLLDPYIALNVDDSRIGQTATKQKTNSPAWHDEFVTDVCNGRKIELAVFHDAPIGYDDFVANCTIQFEELLQNGSRHFEDWIDLEPEGRVYVIIDLSGSSGEAPKDNEERVFRERMRPRKRQGAVRRRVHQVNGHKFMATYLRQPTYCSHCRDFIWGVIGKQGYQCQVCTCVVHKRCHELIITKCAGLKKQETPDQVGSQRFSVNMPHKFGIHNYKVPTFCDHCGSLLWGLLRQGLQCKVCKMNVHRRCETNVAPNCGVDARGIAKVLADLGVTPDKITNSGQRRKKLIAGAESPQPASGSSPSEEDRSKSAPTSPCDQEIKELENNIRKALSFDNRGEEHRAASSPDGQLMSPGENGEVRQGQAKRLGLDEFNFIKVLGKGSFGKVMLAELKGKDEVYAVKVLKKDVILQDDDVDCTMTEKRILALARKHPYLTQLYCCFQTKDRLFFVMEYVNGGDLMFQIQRSRKFDEPRSRFYAAEVTSALMFLHQHGVIYRDLKLDNILLDAEGHCKLADFGMCKEGILNGVTTTTFCGTPDYIAPEILQELEYGPSVDWWALGVLMYEMMAGQPPFEADNEDDLFESILHDDVLYPVWLSKEAVSILKAFMTKNPHKRLGCVASQNGEDAIKQHPFFKEIDWVLLEQKKIKPPFKPRIKTKRDVNNFDQDFTREEPVLTLVDEAIVKQINQEEFKGFSYFGEDLMP
partner: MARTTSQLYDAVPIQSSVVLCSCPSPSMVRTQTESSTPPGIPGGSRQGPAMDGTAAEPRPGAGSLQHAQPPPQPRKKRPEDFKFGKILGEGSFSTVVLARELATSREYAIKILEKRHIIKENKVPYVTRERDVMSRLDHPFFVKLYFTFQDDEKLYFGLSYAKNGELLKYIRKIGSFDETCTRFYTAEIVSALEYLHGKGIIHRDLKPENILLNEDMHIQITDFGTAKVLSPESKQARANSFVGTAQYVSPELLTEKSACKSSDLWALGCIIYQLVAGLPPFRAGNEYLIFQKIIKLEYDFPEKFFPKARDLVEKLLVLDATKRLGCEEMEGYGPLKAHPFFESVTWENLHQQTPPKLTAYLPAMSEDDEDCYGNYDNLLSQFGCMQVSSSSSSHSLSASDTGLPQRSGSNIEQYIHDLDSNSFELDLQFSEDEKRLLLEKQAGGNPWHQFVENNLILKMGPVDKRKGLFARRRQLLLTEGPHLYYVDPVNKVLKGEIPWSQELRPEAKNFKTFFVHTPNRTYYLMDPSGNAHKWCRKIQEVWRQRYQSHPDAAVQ
B2: Protein kinase C epsilon type (Homo sapiens), Q02156 (parent)
chain: B1 chain

Variants of: B1
Conditions: with pdpk1_human PDPK1, O15530

effect of a mutation on the interaction	Variant
with no effect	E599K

Variants of: B2
Conditions: with sin1_human MAPKAP1, Q9BPZ7
Sequence of sin1_human MAPKAP1, Q9BPZ7 (Q9BPZ7 whole entry): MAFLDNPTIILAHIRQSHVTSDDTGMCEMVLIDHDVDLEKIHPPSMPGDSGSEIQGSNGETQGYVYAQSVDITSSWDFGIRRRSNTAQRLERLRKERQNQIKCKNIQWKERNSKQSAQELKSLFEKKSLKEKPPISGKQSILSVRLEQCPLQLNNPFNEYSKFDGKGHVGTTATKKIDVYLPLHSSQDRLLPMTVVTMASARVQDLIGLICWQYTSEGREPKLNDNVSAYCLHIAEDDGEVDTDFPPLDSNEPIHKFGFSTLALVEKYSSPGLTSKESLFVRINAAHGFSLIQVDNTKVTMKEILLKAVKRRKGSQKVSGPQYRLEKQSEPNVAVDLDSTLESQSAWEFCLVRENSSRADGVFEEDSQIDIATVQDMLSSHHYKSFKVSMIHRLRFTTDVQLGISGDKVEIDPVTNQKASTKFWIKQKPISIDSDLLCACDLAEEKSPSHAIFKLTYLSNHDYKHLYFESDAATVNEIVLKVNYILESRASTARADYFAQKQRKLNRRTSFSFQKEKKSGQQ

effect of a mutation on the interaction	Variant
increasing interaction strength	E599K
